Values belong to the binder of their own block, whether it stands above or below them.
Assays:
[1] = target: T1, cynomolgus monkey C1s (produced in house) (cynomolgus monkey, UniProt P09871 16-685 (human entry), limits assumed); assay: BLI (Octet RED96e), antibody on AHC biosensor; C1s Species: Cyno Monkey; R^2 0.9997
T1 construct: also called CyC1s
T1 chain: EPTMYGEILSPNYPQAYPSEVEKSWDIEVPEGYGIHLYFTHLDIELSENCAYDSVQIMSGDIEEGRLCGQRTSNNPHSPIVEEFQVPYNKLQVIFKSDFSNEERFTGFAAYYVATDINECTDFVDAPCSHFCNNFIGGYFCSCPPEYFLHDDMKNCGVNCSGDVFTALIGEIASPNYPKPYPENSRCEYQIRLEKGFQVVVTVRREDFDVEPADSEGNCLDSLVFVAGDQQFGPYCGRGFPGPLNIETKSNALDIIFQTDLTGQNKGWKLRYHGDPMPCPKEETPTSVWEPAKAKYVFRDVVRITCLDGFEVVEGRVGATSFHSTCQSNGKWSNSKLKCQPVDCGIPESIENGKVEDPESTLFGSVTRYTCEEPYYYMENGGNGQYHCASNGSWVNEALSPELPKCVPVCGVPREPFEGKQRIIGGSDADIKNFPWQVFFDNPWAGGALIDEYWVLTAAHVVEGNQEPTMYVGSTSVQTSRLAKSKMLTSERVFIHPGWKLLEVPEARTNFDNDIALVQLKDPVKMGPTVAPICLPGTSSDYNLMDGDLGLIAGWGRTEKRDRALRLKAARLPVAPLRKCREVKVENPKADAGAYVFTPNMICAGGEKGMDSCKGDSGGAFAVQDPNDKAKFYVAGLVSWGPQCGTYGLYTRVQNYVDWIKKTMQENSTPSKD
Description: (§1) At last, analyte was dissociated in 1×KB for 360 sec. Data analysis was done using OCTET® Data Analysis HT Software (Sartorius AG).

[2] = target: T2, human C1s proenzyme (CompTech A103) (human, UniProt P09871 16-688); assay: BLI (Octet RED96e), antibody on AHC biosensor; HuC1s Form: Proenzyme; R^2 0.9990
T2 construct: also called proenzyme human C1s (native C1s)
T2 sequence (looked up): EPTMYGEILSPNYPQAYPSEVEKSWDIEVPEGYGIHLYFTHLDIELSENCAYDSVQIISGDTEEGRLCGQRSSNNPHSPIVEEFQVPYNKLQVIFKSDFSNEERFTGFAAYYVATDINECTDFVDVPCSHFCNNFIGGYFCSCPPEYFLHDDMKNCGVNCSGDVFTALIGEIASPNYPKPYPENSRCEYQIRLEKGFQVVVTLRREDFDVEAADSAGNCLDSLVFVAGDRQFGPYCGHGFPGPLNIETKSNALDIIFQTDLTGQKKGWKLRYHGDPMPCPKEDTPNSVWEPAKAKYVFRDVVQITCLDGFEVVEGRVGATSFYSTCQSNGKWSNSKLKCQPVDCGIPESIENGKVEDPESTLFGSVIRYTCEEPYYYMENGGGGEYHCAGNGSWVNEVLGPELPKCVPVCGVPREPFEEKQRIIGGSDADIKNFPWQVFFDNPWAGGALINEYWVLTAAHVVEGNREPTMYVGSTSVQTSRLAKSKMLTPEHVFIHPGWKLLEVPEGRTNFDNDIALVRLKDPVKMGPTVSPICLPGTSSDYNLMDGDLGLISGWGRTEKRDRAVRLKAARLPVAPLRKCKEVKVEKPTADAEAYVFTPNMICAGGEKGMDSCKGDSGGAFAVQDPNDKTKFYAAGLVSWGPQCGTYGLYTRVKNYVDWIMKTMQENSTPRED
Procedure: Bio-Layer Interferometry technology was used for anti-C1s antibody affinity measurement and binding kinetics determinations with OCTET® RED96e system (Sartorius AG). Pre-hydrated Anti-Human IgG Fc Capture (AHC) biosensors were first equilibrated in 1×KB (Kinetic Buffer, 1×PBS pH 7.4+0.02% Tween-20+0.1% BSA) for 120 sec for the first baseline, followed by loading with […] anti-C1s antibody (2-7, FIG. 3A; 2-8, FIG. 3B; hz2-7(H1L2), FIG. 3C; hz2-8(H1L2 G80A/T82A, FIG. 3D) onto AHC biosensors for 240 sec. Then, the second baseline signal was established for 120 sec before association with various concentrations of active human C1s (CompTech A104) for 240-360 sec. At last, analyte was dissociated in 1×KB for 360 sec. Anti-C1s antibodies 2-7 and 2-8 were also analyzed against human C1s proenzyme (CompTech A103) (data not shown). Data analysis was carried out using OCTET® Data Analysis HT Software (Sartorius AG). KD, kₒₙ, koff and R² values were calculated for each antibody and target combination, as summarized in FIG. 3E showing high affinity binding with KD values in the low nanomolar to picomolar range.

[3] = target: T3, rat C1s (produced in house) (rat, UniProt Q6P6T1 16-688); assay: BLI (Octet RED96e), antibody on AHC biosensor; C1s Species: Rat; R^2 0.9776
T3 construct: also called RaC1s
T3 sequence: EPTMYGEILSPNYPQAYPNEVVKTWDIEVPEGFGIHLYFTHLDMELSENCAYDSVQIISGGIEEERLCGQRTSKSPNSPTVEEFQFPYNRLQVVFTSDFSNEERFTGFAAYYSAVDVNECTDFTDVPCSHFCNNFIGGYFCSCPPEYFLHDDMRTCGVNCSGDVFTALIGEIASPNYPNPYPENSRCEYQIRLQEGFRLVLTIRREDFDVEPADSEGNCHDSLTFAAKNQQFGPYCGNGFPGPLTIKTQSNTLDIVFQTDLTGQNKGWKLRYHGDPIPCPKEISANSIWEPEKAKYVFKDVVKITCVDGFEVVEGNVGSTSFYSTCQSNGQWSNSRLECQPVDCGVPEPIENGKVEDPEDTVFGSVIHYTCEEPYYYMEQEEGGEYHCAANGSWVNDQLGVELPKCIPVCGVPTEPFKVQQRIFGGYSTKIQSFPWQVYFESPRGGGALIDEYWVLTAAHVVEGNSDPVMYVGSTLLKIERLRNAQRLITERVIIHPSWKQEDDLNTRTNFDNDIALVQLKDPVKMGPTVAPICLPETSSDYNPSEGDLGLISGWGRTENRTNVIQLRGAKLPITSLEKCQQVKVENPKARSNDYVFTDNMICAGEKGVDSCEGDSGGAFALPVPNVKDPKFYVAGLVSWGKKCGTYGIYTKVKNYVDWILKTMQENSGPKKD
Description: as §1

Kd [1]: 0.94 nM
koff [1]: 0.00023 s⁻¹
kon [1]: 250000 M⁻¹ s⁻¹
B1: Anti-C1s antibody hz2-7(H1L2) (antibody, V domains shown)
VH: EVQLLESGGGLVQPGGSLRLSCAASGFTFSNYFMNWVRQAPGKGLEWVSEIRLKFTNYATHYADSVKGRFTISRDDSKSTLYLQMNSLRAEDTAVYYCTRDYGSRNGYFDYWGQGTLVTVSS
VL: DIVMTQTPLSLPVTPGEPASISCRSSKSLLHSNGNTFLYWFLQKPGQSPQLLIYRMSNLASGVPDRFSGSGSGTDFTLKISRVEAEDVGVYYCMQHLEYPYTFGGGTKLEIKR
notes: Humanized, human IgG1 / kappa; also called hz2-7(1L2)

Kd [2]: 0.49 nM
koff [2]: 0.00012 s⁻¹
kon [2]: 250000 M⁻¹ s⁻¹
Kd [3]: 17 nM
koff [3]: 0.0012 s⁻¹
kon [3]: 68000 M⁻¹ s⁻¹
B2: Anti-C1s antibody 2-8 (antibody, V domains shown)
VH: EVQLQQSGAELVRPGALVKLSCKASGFNIKEYYMHWVKQRPEQGLEWIGWIDPENGDTIYDPKFQGKASITADTSSNTAYLQLSSLTSEDTAVYYCARSRLFFAYWGQGTLVTVSA
VL: DIVMTQSHKFMSTSVGDRVSFTCKASQDVRTAVDWYQQKPGQSPKLLIYSASYRYTGVPDRFTGTGSGTDFTFTISSVQAEDLAVYFCQQQYTTPYTFGGGTKLEIKT
notes: the HC/LC entries may hold it too; also called clone 2-8

From US20230051715A1 (MABWELL THERAPEUTICS, published 2023)
